The source of these data is the supplement of paper PMC10567573.

Sequences and labels used below:
B1: TOR1AIP2 (parent)
chain: DGAGRTWQDSDTVKLLVDLELSYG
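Also: lentivirally expressed fusions sorted by FACS into six bins by GFP to DsRed ratio, PSI derived from sequencing read proportions per bin multiplied by bin number.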

The variants in the series derive from B1. Briefly: protein stability index of a GFP-peptide fusion (GPS, HEK-293T) (PSI 1-6); higher = more stable. Particulars: c terminus: a fixed tail appended.
As to DGAGRTWQDSDTVKLLVDLELIYG [S22I], the protein stability index worked out at 1.55.

For the variant DGAGRTWQDSDTVKLLVDLELQYG [S22Q], the protein stability index was 2.61.

On to DGAGRTWQDSDTVKLLVDLELKYG [S22K], for which the protein stability index stood at 3.51.

For the variant DGAGRTWQDSDTVKLLVDLELYYG [S22Y], the protein stability index came out at 2.35.

With DGAGRTWQDSDTVKLLVDLELWYG [S22W], the protein stability index amounted to 1.47.

With DGAGRTWQDSDTVKLLVDLELFYG [S22F], the protein stability index is 1.79.

Take DGAGRTWQDSDTVKLLVDLELAYG [S22A]: the protein stability index turned out to be 3.17.

As to DGAGRTWQDSDTVKLLVDLELGYG [S22G], the protein stability index came to 2.49.

Turning to DGAGRTWQDSDTVKLLVDLELRYG [S22R], the protein stability index worked out at 1.84.

Regarding DGAGRTWQDSDTVKLLVDLELCYG [S22C], the protein stability index is 1.85.

On to DGAGRTWQDSDTVKLLVDLELDYG [S22D], for which the protein stability index worked out at 2.51.

On to DGAGRTWQDSDTVKLLVDLELPYG [S22P], for which the protein stability index turned out to be 3.28.

As to DGAGRTWQDSDTVKLLVDLELEYG [S22E], the protein stability index was found to be 2.33.

DGAGRTWQDSDTVKLLVDLELTYG [S22T]: the protein stability index is 1.56.

Regarding DGAGRTWQDSDTVKLLVDLELLYG [S22L], the protein stability index was 1.89.

Regarding DGAGRTWQDSDTVKLLVDLELMYG [S22M], the protein stability index worked out at 2.13.

In the case of DGAGRTWQDSDTVKLLVDLETSYG [L21T], the protein stability index is 1.44.

On to DGAGRTWQDSDTVKLLVDLECSYG [L21C], for which the protein stability index was determined as 1.75.

In the case of DGAGRTWQDSDTVKLLVDLEYSYG [L21Y], the protein stability index is 1.62.

Consider DGAGRTWQDSDTVKLLVDLEQSYG [L21Q], for which the protein stability index came to 2.35.

As to DGAGRTWQDSDTVKLLVDLEWSYG [L21W], the protein stability index worked out at 1.72.

As to DGAGRTWQDSDTVKLLVDLEHSYG [L21H], the protein stability index amounted to 2.84.

In the case of DGAGRTWQDSDTVKLLVDLEKSYG [L21K], the protein stability index amounted to 2.02.

Turning to DGAGRTWQDSDTVKLLVDLEESYG [L21E], the protein stability index was 1.62.

Regarding DGAGRTWQDSDTVKLLVDLEMSYG [L21M], the protein stability index stood at 2.65.

With DGAGRTWQDSDTVKLLVDLEPSYG [L21P], the protein stability index came out at 3.99.

DGAGRTWQDSDTVKLLVDLEASYG [L21A]: the protein stability index turned out to be 2.01.

On to DGAGRTWQDSDTVKLLVDLEFSYG [L21F], for which the protein stability index came to 1.6.

Regarding DGAGRTWQDSDTVKLLVDLEDSYG [L21D], the protein stability index is 2.

DGAGRTWQDSDTVKLLVDLENSYG [L21N]: the protein stability index was found to be 2.07.

Take DGAGRTWQDSDTVKLLMDLELSYG [V17M]: the protein stability index was 1.85.

Take DGAGRTWQDSDTVKLLYDLELSYG [V17Y]: the protein stability index was 2.39.

For DGAGRTWQDSDTVKLLWDLELSYG [V17W], the protein stability index stood at 1.58.

With DGAGRTWQDSDTVKLLIDLELSYG [V17I], the protein stability index worked out at 2.54.

In the case of DGAGRTWQDSDTVKLLQDLELSYG [V17Q], the protein stability index was 3.97.

Turning to DGAGRTWQDSDTVKLLRDLELSYG [V17R], the protein stability index stood at 3.11.

Turning to DGAGRTWQDSDTVKLLFDLELSYG [V17F], the protein stability index was 1.78.

Turning to DGAGRTWQDSDTVKLLEDLELSYG [V17E], the protein stability index was 4.81.

With DGAGRTWQDSDTVKLLCDLELSYG [V17C], the protein stability index turned out to be 1.92.

On to DGAGRTWQDSDTVKLLDDLELSYG [V17D], for which the protein stability index came to 4.56.

Take DGAGRTWQDSDTVKLLSDLELSYG [V17S]: the protein stability index turned out to be 3.21.

For DGAGRTWQDSDTVKLLNDLELSYG [V17N], the protein stability index was found to be 4.01.

For DGAGRTWQDSDTVKLLLDLELSYG [V17L], the protein stability index is 2.34.

For DGAGRTWQDSDTVKLLGDLELSYG [V17G], the protein stability index turned out to be 3.17.

In the case of DGAGRTWQDSDTVKLLVDDELSYG [L19D], the protein stability index was found to be 4.31.

Consider DGAGRTWQDSDTVKLLVDTELSYG [L19T], for which the protein stability index amounted to 4.11.

For DGAGRTWQDSDTVKLLVDCELSYG [L19C], the protein stability index is 2.8.

For the variant DGAGRTWQDSDTVKLLVDMELSYG [L19M], the protein stability index turned out to be 3.

As to DGAGRTWQDSDTVKLLVDKELSYG [L19K], the protein stability index amounted to 4.38.

On to DGAGRTWQDSDTVKLLVDFELSYG [L19F], for which the protein stability index came to 2.43.

DGAGRTWQDSDTVKLLVDIELSYG [L19I]: the protein stability index worked out at 2.03.

Regarding DGAGRTWQDSDTVKLLVDNELSYG [L19N], the protein stability index was 3.75.

Consider DGAGRTWQDSDTVKLLVDEELSYG [L19E], for which the protein stability index stood at 4.55.

With DGAGRTWQDSDTVKLLVDSELSYG [L19S], the protein stability index was found to be 4.

In the case of DGAGRTWQDSDTVKLLVDGELSYG [L19G], the protein stability index was determined as 4.45.

Take DGAGRTWQDSDTVKLLVDAELSYG [L19A]: the protein stability index was 3.97.

In the case of DGAGRTWQDSDTVKLLVDVELSYG [L19V], the protein stability index amounted to 2.27.

In the case of DGAGRTWQDSDTVKLLVDYELSYG [L19Y], the protein stability index is 3.19.

DGAGRTWQDSDTVKLWVDLELSYG [L16W]: the protein stability index was 2.88.

Take DGAGRTWQDSDTVKLGVDLELSYG [L16G]: the protein stability index turned out to be 3.57.

On to DGAGRTWQDSDTVKLSVDLELSYG [L16S], for which the protein stability index amounted to 3.36.

DGAGRTWQDSDTVKLMVDLELSYG [L16M]: the protein stability index stood at 2.02.

As to DGAGRTWQDSDTVKLTVDLELSYG [L16T], the protein stability index is 3.66.

As for DGAGRTWQDSDTVKLNVDLELSYG [L16N], the protein stability index was 3.94.

DGAGRTWQDSDTVKLYVDLELSYG [L16Y]: the protein stability index is 1.82.

For the variant DGAGRTWQDSDTVKLKVDLELSYG [L16K], the protein stability index was 4.25.

With DGAGRTWQDSDTVKLQVDLELSYG [L16Q], the protein stability index is 3.31.

On to DGAGRTWQDSDTVKLRVDLELSYG [L16R], for which the protein stability index is 2.98.

As to DGAGRTWQDSDTVKLVVDLELSYG [L16V], the protein stability index came to 1.42.

With DGAGRTWQDSDTVKLPVDLELSYG [L16P], the protein stability index worked out at 3.38.

Regarding DGAGRTWQDSDTVKLIVDLELSYG [L16I], the protein stability index came out at 2.57.

Regarding DGAGRTWQDSDTVKLLVDLELSHG [Y23H], the protein stability index was determined as 1.77.

As to DGAGRTWQDSDTVKLLVDLELSIG [Y23I], the protein stability index is 1.36.

Regarding DGAGRTWQDSDTVKLLVDLELSTG [Y23T], the protein stability index was 2.56.

For DGAGRTWQDSDTVKLLVDLELSEG [Y23E], the protein stability index came to 1.85.

In the case of DGAGRTWQDSDTVKLLVDLELSMG [Y23M], the protein stability index came out at 5.21.

On to DGAGRTWQDSDTVKLLVDLELSGG [Y23G], for which the protein stability index worked out at 2.6.

With DGAGRTWQDSDTVKLLVDLELSFG [Y23F], the protein stability index came to 1.03.

Take DGAGRTWQDSDTVKLLVDLELSSG [Y23S]: the protein stability index was found to be 1.56.

On to DGAGRTWQDSDTVKLLVDLELSNG [Y23N], for which the protein stability index turned out to be 1.45.

Regarding DGAGRTWQDSDTVKLLVDLELSAG [Y23A], the protein stability index stood at 1.1.

Regarding DGAGRTWQDSDTVKLLVDLELSRG [Y23R], the protein stability index stood at 2.15.

For DGAGRTWQDSDTVKLLVDLELSKG [Y23K], the protein stability index turned out to be 3.9.

As to DGAGRTWQDSDTVKLLVDLELSDG [Y23D], the protein stability index stood at 1.91.

For the variant DGAGRTWQDSDTVKLLVDLELSYS [G24S], the protein stability index is 2.51.

As for DGAGRTWQDSDTVKLLVDLELSYE [G24E], the protein stability index turned out to be 1.71.

Consider DGAGRTWQDSDTVKLLVDLELSYN [G24N], for which the protein stability index worked out at 1.26.

Take DGAGRTWQDSDTVKLLVDLELSYT [G24T]: the protein stability index came out at 1.73.

Take DGAGRTWQDSDTVKLLVDLELSYD [G24D]: the protein stability index is 1.8.

As to DGAGRTWQDSDTVKLLVDLELSYK [G24K], the protein stability index is 2.88.

Regarding DGAGRTWQDSDTVKLLVDLELSYQ [G24Q], the protein stability index came to 2.53.

In the case of DGAGRTWQDSDTVKLLVDLELSYI [G24I], the protein stability index was 3.44.

Take DGAGRTWQDSDTVKLLVDLELSYA [G24A]: the protein stability index was determined as 2.47.

Regarding DGAGRTWQDSDTVKLLVDLELSYP [G24P], the protein stability index was determined as 2.77.
